In this experiment the target is BF520.M6.I1 Env (HIV-1 (clade A, infant BF520)).

This is an account of results in article PMC6522554.

B1: BF520.1 mature mAb (IgG) (antibody, V domains shown)
VH: QVQLVQSGAEMKMPGASVKVSCKASGYTFTGNYIHWVRQAPGQGLEWMGWIAPHSGDTSYAQRFQGRVTMTGDTSLSTAYMELSRLRSDDTAVYYCARGPFPNYYGPGSYWGGLDFWGQGTLVSVSS
VL: EIVMTQSPATLSVSLGERATLSCRTSQNVAYNFAWYQQKPGQAPRLLIYEASSRATGTPARFSGSGFGTEFTLTISSMQSEDFAVYYCQQYNNWPSPFTFGPGTKVHIK
As to B1, the potency (IC50) of neutralization of the autologous pseudovirus BF520.M6.I1 stood at 1.1 μg ml^−1.
